{"source": "paper PMC12098889", "about": "“Structural insight into PIF6-mediated red light signal transduction of plant phytochrome B” (Cell Discovery, 2025)", "molecules": {"B1": {"name": "phytochrome B (phyB), full length (1‒1172) (receptor, Arabidopsis, UniProt P14713 1-1172, looked up)", "chain": "MVSGVGGSGGGRGGGRGGEEEPSSSHTPNNRRGGEQAQSSGTKSLRPRSNTESMSKAIQQYTVDARLHAVFEQSGESGKSFDYSQSLKTTTYGSSVPEQQITAYLSRIQRGGYIQPFGCMIAVDESSFRIIGYSENAREMLGIMPQSVPTLEKPEILAMGTDVRSLFTSSSSILLERAFVAREITLLNPVWIHSKNTGKPFYAILHRIDVGVVIDLEPARTEDPALSIAGAVQSQKLAVRAISQLQALPGGDIKLLCDTVVESVRDLTGYDRVMVYKFHEDEHGEVVAESKRDDLEPYIGLHYPATDIPQASRFLFKQNRVRMIVDCNATPVLVVQDDRLTQSMCLVGSTLRAPHGCHSQYMANMGSIASLAMAVIINGNEDDGSNVASGRSSMRLWGLVVCHHTSSRCIPFPLRYACEFLMQAFGLQLNMELQLALQMSEKRVLRTQTLLCDMLLRDSPAGIVTQSPSIMDLVKCDGAAFLYHGKYYPLGVAPSEVQIKDVVEWLLANHADSTGLSTDSLGDAGYPGAAALGDAVCGMAVAYITKRDFLFWFRSHTAKEIKWGGAKHHPEDKDDGQRMHPRSSFQAFLEVVKSRSQPWETAEMDAIHSLQLILRDSFKESEAAMNSKVVDGVVQPCRDMAGEQGIDELGAVAREMVRLIETATVPIFAVDAGGCINGWNAKIAELTGLSVEEAMGKSLVSDLIYKENEATVNKLLSRALRGDEEKNVEVKLKTFSPELQGKAVFVVVNACSSKDYLNNIVGVCFVGQDVTSQKIVMDKFINIQGDYKAIVHSPNPLIPPIFAADENTCCLEWNMAMEKLTGWSRSEVIGKMIVGEVFGSCCMLKGPDALTKFMIVLHNAIGGQDTDKFPFPFFDRNGKFVQALLTANKRVSLEGKVIGAFCFLQIPSPELQQALAVQRRQDTECFTKAKELAYICQVIKNPLSGMRFANSLLEATDLNEDQKQLLETSVSCEKQISRIVGDMDLESIEDGSFVLKREEFFLGSVINAIVSQAMFLLRDRGLQLIRDIPEEIKSIEVFGDQIRIQQLLAEFLLSIIRYAPSQEWVEIHLSQLSKQMADGFAAIRTEFRMACPGEGLPPELVRDMFHSSRWTSPEGLGLSVCRKILKLMNGEVQYIRESERSYFLIILELPVPRKRPLSTASGSGDMMLMMPY", "modifications": "PΦB chromophore covalently linked to C357", "notes": "Arabidopsis phytochrome B, residues 1-1172, At2g18790; The same protein is Pr in the dark and Pfr after red light; The purification uses Ni-NTA, but no His tag on phyB is described; also called wild-type phyB; phyB-Pr (dark); source: E. coli BL21(DE3), co-expressed with HO1 and HY2, purified (Ni-NTA, anti-FLAG resin, Source Q); not shown: 3× Flag ([residues removed]), N-terminal, kept"}, "B2": {"name": "PIF6α (1‒363) (natural protein, Arabidopsis, UniProt Q8L5W7 1-363, looked up)", "chain": "MMFLPTDYCCRLSDQEYMELVFENGQILAKGQRSNVSLHNQRTKSIMDLYEAEYNEDFMKSIIHGGGGAITNLGDTQVVPQSHVAAAHETNMLESNKHVDDSETLKASSSKRMMVDYHNRKKIKFIPPDEQSVVADRSFKLGFDTSSVGFTEDSEGSMYLSSSLDDESDDARPQVPARTRKALVKRKRNAEAYNSPERNQRNDINKKMRTLQNLLPNSHKDDNESMLDEAINYMTNLQLQVQMMTMGNRFVTPSMMMPLGPNYSQMGLAMGVGMQMGEQQFLPAHVLGAGLPGINDSADMLRFLNHPGLMPMQNSAPFIPTENCSPQSVPPSCAAFPNQIPNPNSLSNLDGATLHKKSRKTNR", "notes": "Modified pCold TF vector; purified on Ni resin, so a His tag is likely present but is not described; also called full-length PIF6α; source: E. coli BL21(DE3), purified (Ni-NTA, Strep-Tactin, Source Q); not shown: StrepII, C-terminal, kept"}, "B3": {"name": "phyB^Y276H, full length (receptor, Arabidopsis, UniProt P14713 1-1172, looked up)", "chain": "B1 chain with Y276H", "modifications": "PΦB chromophore covalently bound", "notes": "Arabidopsis phytochrome B, residues 1-1172, At2g18790, with Y276H; also called constitutively active mutant phyB^Y276H; source: E. coli BL21(DE3), co-expressed with HO1 and HY2, purified (Ni-NTA, anti-FLAG resin, Source Q); not shown: 3× Flag ([residues removed]), N-terminal, kept"}, "B4": {"name": "phyBN^Y276H (1‒908) (domain or fragment, Arabidopsis, UniProt P14713 1-908, looked up)", "chain": "MVSGVGGSGGGRGGGRGGEEEPSSSHTPNNRRGGEQAQSSGTKSLRPRSNTESMSKAIQQYTVDARLHAVFEQSGESGKSFDYSQSLKTTTYGSSVPEQQITAYLSRIQRGGYIQPFGCMIAVDESSFRIIGYSENAREMLGIMPQSVPTLEKPEILAMGTDVRSLFTSSSSILLERAFVAREITLLNPVWIHSKNTGKPFYAILHRIDVGVVIDLEPARTEDPALSIAGAVQSQKLAVRAISQLQALPGGDIKLLCDTVVESVRDLTGYDRVMVHKFHEDEHGEVVAESKRDDLEPYIGLHYPATDIPQASRFLFKQNRVRMIVDCNATPVLVVQDDRLTQSMCLVGSTLRAPHGCHSQYMANMGSIASLAMAVIINGNEDDGSNVASGRSSMRLWGLVVCHHTSSRCIPFPLRYACEFLMQAFGLQLNMELQLALQMSEKRVLRTQTLLCDMLLRDSPAGIVTQSPSIMDLVKCDGAAFLYHGKYYPLGVAPSEVQIKDVVEWLLANHADSTGLSTDSLGDAGYPGAAALGDAVCGMAVAYITKRDFLFWFRSHTAKEIKWGGAKHHPEDKDDGQRMHPRSSFQAFLEVVKSRSQPWETAEMDAIHSLQLILRDSFKESEAAMNSKVVDGVVQPCRDMAGEQGIDELGAVAREMVRLIETATVPIFAVDAGGCINGWNAKIAELTGLSVEEAMGKSLVSDLIYKENEATVNKLLSRALRGDEEKNVEVKLKTFSPELQGKAVFVVVNACSSKDYLNNIVGVCFVGQDVTSQKIVMDKFINIQGDYKAIVHSPNPLIPPIFAADENTCCLEWNMAMEKLTGWSRSEVIGKMIVGEVFGSCCMLKGPDALTKFMIVLHNAIGGQDTDKFPFPFFDRNGKFVQALLTANKRVSLEGKVIGAFCFLQIPS", "modifications": "PΦB chromophore covalently bound", "notes": "Arabidopsis phytochrome B, residues 1-908, with Y276H; also called HKRD-truncated phyBN^Y276H; truncated phyBN^Y276H (M1‒S908); source: E. coli BL21(DE3), co-expressed with HO1 and HY2, purified; not shown: 3× Flag, N-terminal, kept"}, "B5": {"name": "phyB^T449C (with C925S, C936S, C972S and C1121S) (receptor, Arabidopsis, UniProt P14713 1-1172, looked up)", "chain": "B1 chain with T449C, C925S, C936S, C972S, C1121S", "modifications": "PΦB chromophore covalently bound", "notes": "Arabidopsis phytochrome B (1-1172) with T449C for cross-linking and C925S, C936S, C972S, C1121S against nonspecific cross-linking; source: E. coli BL21(DE3), purified"}, "B6": {"name": "phyB^Y276H/T449C (with C925S, C936S, C972S and C1121S) (receptor, Arabidopsis, UniProt P14713 1-1172, looked up)", "chain": "B1 chain with Y276H, T449C, C925S, C936S, C972S, C1121S", "modifications": "PΦB chromophore covalently bound", "notes": "Arabidopsis phytochrome B (1-1172) with Y276H, T449C and C925S, C936S, C972S, C1121S; source: E. coli BL21(DE3), purified"}}, "key": {"[1]": {"molecular_target": "PIF6β (1‒182) (Arabidopsis)", "assay": "cryo-EM structure; phyB and PIF6β mixed ~1:1.5, on ice under red light (665 nm, 800 μmol m^-2 s^-1), SEC in 25 mM HEPES pH 7.8, 250 mM KCl, 10 mM DTT, 1 mM EDTA; irradiated with red light 20 min before freezing"}, "[2]": {"molecular_target": "phytochrome B (phyB), full length (1‒1172) (Arabidopsis) (UniProt P14713)"}, "[3]": {"molecular_target": "the molecule itself", "assay": "cryo-EM structure; phyB and PIF6β mixed ~1:1.5, on ice under red light (665 nm, 800 μmol m^-2 s^-1), SEC in 25 mM HEPES pH 7.8, 250 mM KCl, 10 mM DTT, 1 mM EDTA; irradiated with red light 20 min before freezing"}, "phyB^Y276H, full length": {"molecular_target": "B3", "assay": "pull-down; StrepII-tagged PIF6 forms or PIFNs held on Strep-Tactin Sepharose, 3× Flag-phyB or phyB^Y276H in the mixture; in the dark, 4 °C, 2 h; buffer E (100 mM Tris-HCl pH 8.0, 150 mM NaCl, 1 mM EDTA); SDS-PAGE with Coomassie and zinc-induced fluorescence", "details": "both partners purified"}, "[4]": {"molecular_target": "PIF6β (1‒182) (Arabidopsis)", "assay": "cryo-EM structure; phyB^Y276H or phyBN^Y276H mixed with PIF6β ~1:1.5; full-length complex prepared in the dark; SEC on Superose 6 Increase before freezing"}, "[5]": {"molecular_target": "the molecule itself", "assay": "cryo-EM structure; phyB^Y276H or phyBN^Y276H mixed with PIF6β ~1:1.5; full-length complex prepared in the dark; SEC on Superose 6 Increase before freezing"}, "[6]": {"molecular_target": "the molecule itself", "assay": "cross-linking; thiol-directed cross-linking with 1 mM M2M, ~2 μM protein, on ice 30 min, under red light (665 nm, 767 μmol m^-2 s^-1); 25 mM Tris-HCl pH 8.0, 150 mM NaCl; reversed by DTT; more cross-linked band with the PIF6 fragment 13-100"}}, "note": "Substitutions are numbered along the chain they refer to. Names may count otherwise.", "data": [{"molecule": "phytochrome B (phyB), full length (1‒1172) (from UniProt P14713 1-1172) (receptor)", "values": [{"measurement": "stoichiometry N (phyB per PIF6β)", "setting": "[1]", "result": 2}]}, {"molecule": "PIF6β (1‒182) (natural protein)", "values": [{"measurement": "Pfr→Pr thermal reversion at 25 °C: amount of phyB-Pfr remaining after 400 min with PIF6β against phyB alone", "setting": "[2]", "result": 8, "unit": "fold"}]}, {"molecule": "B1", "values": [{"measurement": "binding result", "setting": "[3]", "result": "binds"}]}, {"molecule": "B2", "values": [{"measurement": "binding result", "setting": "phyB^Y276H, full length", "result": "binds"}]}, {"molecule": "B3", "values": [{"measurement": "stoichiometry N (phyB per PIF6β)", "setting": "[4]", "result": 2}, {"measurement": "binding result", "setting": "[5]", "result": "binds"}]}, {"molecule": "B4", "values": [{"measurement": "binding result", "setting": "[5]", "result": "binds"}]}, {"molecule": "B5", "values": [{"measurement": "binding result", "setting": "[6]", "result": "binds"}]}, {"molecule": "B6", "values": [{"measurement": "binding result", "setting": "[6]", "result": "binds"}]}]}
